Patent US20210030857A1 (NGM BIOPHARMACEUTICALS, published 2021)
Numbering of substitutions follows the chain as printed.

T1: human beta klotho expressed on cells (human, UniProt Q86Z14 1-1044)
T1 construct: also called HuKLB overexpressing cells; Human KLB
T1 sequence: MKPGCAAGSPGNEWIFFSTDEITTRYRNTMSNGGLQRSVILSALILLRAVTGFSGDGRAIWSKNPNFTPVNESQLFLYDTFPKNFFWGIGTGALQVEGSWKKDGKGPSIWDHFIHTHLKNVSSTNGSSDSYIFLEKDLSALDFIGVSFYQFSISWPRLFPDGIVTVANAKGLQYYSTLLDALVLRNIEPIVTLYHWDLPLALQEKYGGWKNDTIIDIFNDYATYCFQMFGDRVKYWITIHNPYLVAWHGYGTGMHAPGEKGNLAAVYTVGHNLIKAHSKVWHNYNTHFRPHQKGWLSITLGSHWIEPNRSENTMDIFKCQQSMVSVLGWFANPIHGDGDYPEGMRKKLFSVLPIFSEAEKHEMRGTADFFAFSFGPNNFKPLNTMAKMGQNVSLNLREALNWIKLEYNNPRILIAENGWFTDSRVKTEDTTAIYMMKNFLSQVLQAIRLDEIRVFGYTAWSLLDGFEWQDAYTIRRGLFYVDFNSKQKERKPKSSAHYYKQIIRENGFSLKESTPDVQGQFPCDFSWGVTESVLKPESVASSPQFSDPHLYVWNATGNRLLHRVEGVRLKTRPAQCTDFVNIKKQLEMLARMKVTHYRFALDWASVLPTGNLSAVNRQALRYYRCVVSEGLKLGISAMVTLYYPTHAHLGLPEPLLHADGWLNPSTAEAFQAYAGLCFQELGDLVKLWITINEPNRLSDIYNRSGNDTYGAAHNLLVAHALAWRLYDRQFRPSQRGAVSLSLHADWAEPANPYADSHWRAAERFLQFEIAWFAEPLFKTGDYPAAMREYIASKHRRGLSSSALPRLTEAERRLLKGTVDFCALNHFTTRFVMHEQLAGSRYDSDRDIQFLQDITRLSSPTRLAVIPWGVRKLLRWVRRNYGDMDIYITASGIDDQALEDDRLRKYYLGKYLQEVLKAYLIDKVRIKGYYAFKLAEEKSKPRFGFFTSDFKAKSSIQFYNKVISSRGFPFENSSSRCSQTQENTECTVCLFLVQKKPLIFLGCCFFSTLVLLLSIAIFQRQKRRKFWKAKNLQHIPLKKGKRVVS

B1: antibody 5H23 (antibody, V domains shown)
VH: QVQLQQSGPELVKPGALVKISCKASGYTFTSYDINWVKQRPGQGLEWIGWIYPGDGSTKYNEKFKGKATLTADKSSRTAYMQLSSLTSENSAVYFCARSDYYGSRSFAYWGQGTLVTVSA
VL: DIVLTQSPASLAVSLGQRATISCRASKSVSTSGYVYMHWNQQKPGQPPKLLIYLASYLESGVPARFSGSGSGTDFTLNIHPVEEEDAAIYYCQHSRDLTFPFGGGTKLEIK
notes: Murine monoclonal antibody from hybridoma; also called 5H23-Alexa647 (labelled form)
B2: antibody 2L12 (antibody, V domains shown)
VH: B1 VH with S31R, Q39K, G56D, R77S, A108V
VL: DIVLTQSPASLPVSLGQRATISCRASKSVSTSGYSYLHWYQQKPGQPPKLLIYLASNLESGVPARFSGSGSGTDFTLNIHPVEEEDAATYYCQHSGELPYTFGGGTKLEIK
notes: Murine monoclonal antibody
B3: antibody 4P5 (antibody, V domains shown)
VH: B1 VH with S31R, Q39K, G56D, R77S, A108V
VL: B2 VL with V3L, P12A, L37M, S69R, Q93H
notes: Murine monoclonal antibody
B4: antibody 3N20 (antibody, V domains shown)
VH: QVQLQESGAELARPGASVKLSCKVSGYIFTNYGISWVKQRTGQGLEWIGEIYPRSGNTYYNEKFKGKATLTADMSSSTAYMDLRSLTSEDSAVYFCARHWDGVLDYFDYWGQGTSLTVSS
VL: DIVMTQSPSSLSVSAGEKVTMSCKSSQSLLNSGNQKNYLAWYQQKPGQPPKLLIYGASTRESGVPDRFTGSGSGTDFTLTISSVQAEDLAVYYCLNDHSYPFTFGAGTKLELK
notes: Murine monoclonal antibody
B5: antibody 1C17 (antibody, V domains shown)
VH: QVQLQESGPGLVKPSQSLSLTCSVTGYSITSGYYWNWIRQFPGNKLEWMGYINYDGNSNYTPSLKNRISITRDTSKNQFFLKLNSVTPEDTATYYCARKGAYYSNYDSFDVWGTGTTVTVSS
VL: DIKMTQSPSSMYASLGERVTITCKASQDINSYLSWVQQKPGKSPKTLIYRANRLVDGVPSRFSGSGSGQDYSLTISSLEYEDMGIYYCLQYDEFPFTFGSGTKLEIK
notes: Murine monoclonal antibody
B6: antibody 5F7 (antibody, V domains shown)
VH: B1 VH with L4P, Q6E, S31R, G56I, R77S, S84N, A108V
VL: B2 VL with P12A, L37M, G96R, L108V
notes: Murine monoclonal antibody
B7: antibody 5C23 (antibody, V domains shown)
VH: B1 VH with L4P, Q6E, S31R, Q39K, K65E, R77S, A108V
VL: B2 VL with A9D, P12T, L37M, G96R
notes: Murine monoclonal antibody
B8: antibody 1D19 (antibody, V domains shown)
VH: QVQPQESGPELVKPGALVKISCKASGYTFTRYDINWMKQRPGQGLEWIGWIYPGDSSTKFNENFKDKATLTADKSSSTAYMQLSSLTSENSTVYFCARSDYYGSRSFTYWGQGTLVTVSA
VL: B2 VL with P12A, L37M, G96R
notes: Murine monoclonal antibody
B9: antibody 3L3 (antibody, V domains shown)
VH: B1 VH with L4P, Q6E, A16T, T58P, N61D, R77S, A108V
VL: B2 VL with P12A, L37V, S69R
notes: Murine monoclonal antibody

molecular target: human beta klotho / human FGFR1c receptor complex on cells (human, UniProt Q86Z14 1-1044; P11362 22-822); test: cell-based or functional assay
Sequence (P11362 22-822 limits assumed, one chain of several): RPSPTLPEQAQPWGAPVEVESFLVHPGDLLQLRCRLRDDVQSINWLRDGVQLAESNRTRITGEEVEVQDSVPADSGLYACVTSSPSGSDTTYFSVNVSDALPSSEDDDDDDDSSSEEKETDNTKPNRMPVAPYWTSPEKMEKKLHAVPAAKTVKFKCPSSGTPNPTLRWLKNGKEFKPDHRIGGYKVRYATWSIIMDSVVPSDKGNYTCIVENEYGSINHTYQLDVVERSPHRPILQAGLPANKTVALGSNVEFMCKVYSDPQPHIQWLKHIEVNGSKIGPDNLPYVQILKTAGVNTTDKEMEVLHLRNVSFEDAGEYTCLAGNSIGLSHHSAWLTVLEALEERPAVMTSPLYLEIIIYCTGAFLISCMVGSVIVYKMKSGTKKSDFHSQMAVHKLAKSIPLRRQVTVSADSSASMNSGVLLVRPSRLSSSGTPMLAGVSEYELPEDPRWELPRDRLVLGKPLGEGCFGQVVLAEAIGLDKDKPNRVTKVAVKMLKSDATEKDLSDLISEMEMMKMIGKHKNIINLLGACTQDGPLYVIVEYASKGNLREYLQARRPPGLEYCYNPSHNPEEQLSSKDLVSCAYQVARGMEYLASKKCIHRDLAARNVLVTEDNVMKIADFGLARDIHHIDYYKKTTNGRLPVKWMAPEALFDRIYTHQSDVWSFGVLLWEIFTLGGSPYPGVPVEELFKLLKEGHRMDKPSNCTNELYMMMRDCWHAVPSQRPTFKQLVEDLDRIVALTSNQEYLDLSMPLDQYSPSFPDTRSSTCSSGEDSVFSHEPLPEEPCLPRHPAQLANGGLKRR

Row | Binder | L6 huKLB/R1c reporter assay EC50
1 | B1 | 0.28 nM
2 | B2 | 4.65 nM
3 | B3 | 0.39 nM

molecular target: human beta klotho / human FGFR3c on L6 cells (human, UniProt Q86Z14 1-1044; P22607 23-806); test: cell-based or functional assay
Sequence (P22607 23-806, one chain of several): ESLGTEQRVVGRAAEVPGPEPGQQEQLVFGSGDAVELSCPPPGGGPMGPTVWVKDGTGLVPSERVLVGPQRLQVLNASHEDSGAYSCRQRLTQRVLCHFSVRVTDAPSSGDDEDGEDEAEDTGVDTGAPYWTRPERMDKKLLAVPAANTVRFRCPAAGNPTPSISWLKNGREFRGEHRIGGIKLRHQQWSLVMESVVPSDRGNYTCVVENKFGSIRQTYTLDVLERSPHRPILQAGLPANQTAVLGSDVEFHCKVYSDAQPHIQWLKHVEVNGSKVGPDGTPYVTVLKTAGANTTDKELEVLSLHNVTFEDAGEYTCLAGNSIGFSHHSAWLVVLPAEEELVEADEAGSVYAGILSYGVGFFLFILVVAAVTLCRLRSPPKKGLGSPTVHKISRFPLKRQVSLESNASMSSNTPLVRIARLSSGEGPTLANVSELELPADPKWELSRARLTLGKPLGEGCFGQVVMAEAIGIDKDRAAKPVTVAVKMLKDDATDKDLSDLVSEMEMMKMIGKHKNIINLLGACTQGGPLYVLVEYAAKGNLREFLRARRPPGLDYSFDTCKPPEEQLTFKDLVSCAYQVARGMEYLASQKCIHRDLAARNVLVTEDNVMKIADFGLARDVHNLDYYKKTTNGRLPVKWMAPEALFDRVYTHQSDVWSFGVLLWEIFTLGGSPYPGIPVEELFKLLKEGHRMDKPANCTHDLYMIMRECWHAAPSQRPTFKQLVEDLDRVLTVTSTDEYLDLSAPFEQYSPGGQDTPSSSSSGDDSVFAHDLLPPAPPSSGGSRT

Row | Binder | L6 huKLB/R3c reporter assay EC50
4 | B1 | > 67 nM
5 | B2 | > 67 nM
6 | B3 | > 67 nM

molecular target: human beta klotho / human FGFR4 on L6 cells (human, UniProt Q86Z14 1-1044; P22455 22-802); test: cell-based or functional assay
Sequence (P22455 22-802, one chain of several): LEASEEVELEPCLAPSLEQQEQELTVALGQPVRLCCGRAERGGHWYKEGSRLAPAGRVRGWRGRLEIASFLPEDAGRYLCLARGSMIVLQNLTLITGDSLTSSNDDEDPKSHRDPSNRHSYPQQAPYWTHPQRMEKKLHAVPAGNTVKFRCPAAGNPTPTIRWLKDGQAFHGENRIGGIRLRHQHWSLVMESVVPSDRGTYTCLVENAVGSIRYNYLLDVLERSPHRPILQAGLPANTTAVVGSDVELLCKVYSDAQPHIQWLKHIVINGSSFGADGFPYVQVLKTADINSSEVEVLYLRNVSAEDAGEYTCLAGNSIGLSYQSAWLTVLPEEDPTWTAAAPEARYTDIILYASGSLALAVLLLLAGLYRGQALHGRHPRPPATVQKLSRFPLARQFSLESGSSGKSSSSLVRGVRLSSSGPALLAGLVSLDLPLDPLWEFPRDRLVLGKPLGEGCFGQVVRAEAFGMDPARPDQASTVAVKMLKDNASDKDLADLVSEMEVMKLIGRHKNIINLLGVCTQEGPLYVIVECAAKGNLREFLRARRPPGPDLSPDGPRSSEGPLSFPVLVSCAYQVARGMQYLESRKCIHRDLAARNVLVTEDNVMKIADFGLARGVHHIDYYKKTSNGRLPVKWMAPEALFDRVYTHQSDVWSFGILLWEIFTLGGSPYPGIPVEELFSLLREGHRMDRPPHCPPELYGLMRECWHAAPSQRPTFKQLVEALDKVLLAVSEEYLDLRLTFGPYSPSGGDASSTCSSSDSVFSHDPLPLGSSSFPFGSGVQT

Row | Binder | L6 huKLB/R4 reporter assay EC50
7 | B1 | > 67 nM
8 | B2 | > 67 nM
9 | B3 | > 67 nM

molecular target: T1, human beta klotho expressed on cells; test: FACS competition on HuKLB-overexpressing cells; row antibody unlabelled; competitor 3I13-Alexa488 (labelled, EC10); MFI of the label
Method: For example, for competition binding assays by FACS analysis, antibody standards were prepared that were conjugated to a fluorochrome using either A488 or A647 antibody labeling kit (Invitrogen) following manufacturer's instructions. A dose titration of the conjugated antibody standard was evaluated using HuKLB overexpressing cells. The plateau of the maximal signal of antibody binding is EC=100 and the background signal is EC=0. Competition by FACS against the fluorochrome labeled antibody was performed by pre-incubating HuKLB overexpressing cells with hybridoma supernatants for 15 minutes at room temperature. Without washing, an EC=10 concentration of A488 or A647 labelled antibody standard was added. EC=10 for an individual antibody was determined by 10% of signal using the maximum signal as (100%) and background signal as (0%). After 30 minutes at 4° C., cells are washed and analyzed by FACS. […] A partial competing antibody is one sample that show signal between labelled antibody alone and background. Antibodies that show complete competition against the same standard antibody are considered to be in the same bin.
Representative results are shown in Table 12 below reported as mean fluorescence intensity (MFI).

Row | Binder | Mean Florescence Intensity (MFI)
10 | B4 | 30.5 MFI
11 | B5 | 26.7 MFI
12 | B6 | 28.5 MFI
13 | B1 | 29.8 MFI
14 | B2 | 30.9 MFI
15 | B7 | 29.3 MFI
16 | B3 | 30.1 MFI
17 | B8 | 30.6 MFI
18 | B9 | 28.7 MFI
